B1: Eukaryotic translation initiation factor 4E-binding protein 2 (Homo sapiens), Q13542 (parent)
chain: MSSSAGSGHQPSQSRAIPTRTVAISDAAQLPHDYCTTPGGTLFSTTPGGTRIIYDRKFLLDRRNSPMAQTPPCHLPNIPGVTSPGTLIEDSKVEVNNLNNLNNHDRKHAVGDDAQFEMDI
B2: Caspase recruitment domain-containing protein 9 (Homo sapiens), Q9H257 (parent)
chain: MSDYENDDECWSVLEGFRVTLTSVIDPSRITPYLRQCKVLNPDDEEQVLSDPNLVIRKRKVGVLLDILQRTGHKGYVAFLESLELYYPQLYKKVTGKEPARVFSMIIDASGESGLTQLLMTEVMKLQKKVQDLTALLSSKDDFIKELRVKDSLLRKHQERVQRLKEECEAGSRELKRCKEENYDLAMRLAHQSEEKGAALMRNRDLQLEIDQLKHSLMKAEDDCKVERKHTLKLRHAMEQRPSQELLWELQQEKALLQARVQELEASVQEGKLDRSSPYIQVLEEDWRQALRDHQEQANTIFSLRKDLRQGEARRLRCMEEKEMFELQCLALRKDSKMYKDRIEAILLQMEEVAIERDQAIATREELHAQHARGLQEKDALRKQVRELGEKADELQLQVFQCEAQLLAVEGRLRRQQLETLVLSSDLEDGSPRRSQELSLPQDLEDTQLSDKGCLAGGGSPKQPFAALHQEQVLRNPHDAGLSSGEPPEKERRRLKESFENYRRKRALRKMQKGWRQGEEDRENTTGSDNTDTEGS
partner: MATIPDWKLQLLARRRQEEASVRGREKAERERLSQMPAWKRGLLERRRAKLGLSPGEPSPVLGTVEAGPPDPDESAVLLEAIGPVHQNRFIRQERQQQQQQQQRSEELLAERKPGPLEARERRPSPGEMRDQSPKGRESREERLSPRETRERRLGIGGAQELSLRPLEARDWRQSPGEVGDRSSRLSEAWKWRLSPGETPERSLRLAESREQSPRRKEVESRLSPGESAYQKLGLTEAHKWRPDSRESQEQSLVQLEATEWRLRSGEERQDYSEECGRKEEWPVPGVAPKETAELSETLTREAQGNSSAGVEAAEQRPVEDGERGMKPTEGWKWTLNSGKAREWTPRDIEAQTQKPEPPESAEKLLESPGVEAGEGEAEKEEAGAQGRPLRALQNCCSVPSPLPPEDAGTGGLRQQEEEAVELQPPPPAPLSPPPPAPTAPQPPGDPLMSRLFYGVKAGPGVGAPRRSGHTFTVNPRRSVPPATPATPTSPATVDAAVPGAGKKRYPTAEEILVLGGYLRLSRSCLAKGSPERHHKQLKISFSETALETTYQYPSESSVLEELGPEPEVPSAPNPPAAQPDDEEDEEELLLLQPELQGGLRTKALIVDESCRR
B3: Nuclear pore glycoprotein p62 (Homo sapiens), P37198 (parent)
chain: MSGFNFGGTGAPTGGFTFGTAKTATTTPATGFSFSTSGTGGFNFGAPFQPATSTPSTGLFSLATQTPATQTTGFTFGTATLASGGTGFSLGIGASKLNLSNTAATPAMANPSGFGLGSSNLTNAISSTVTSSQGTAPTGFVFGPSTTSVAPATTSGGFSFTGGSTAQPSGFNIGSAGNSAQPTAPATLPFTPATPAATTAGATQPAAPTPTATITSTGPSLFASIATAPTSSATTGLSLCTPVTTAGAPTAGTQGFSLKAPGAASGTSTTTSTAATATATTTSSSSTTGFALNLKPLAPAGIPSNTAAAVTAPPGPGAAAGAAASSAMTYAQLESLINKWSLELEDQERHFLQQATQVNAWDRTLIENGEKITSLHREVEKVKLDQKRLDQELDFILSQQKELEDLLSPLEELVKEQSGTIYLQHADEEREKTYKLAENIDAQLKRMAQDLKDIIEHLNTSGAPADTSDPLQQICKILNAHMDSLQWIDQNSALLQRKVEEVTKVCEGRRKEQERSFRITFD
B4: Caspase-9 (Homo sapiens), P55211 (parent)
chain: MDEADRRLLRRCRLRLVEELQVDQLWDALLSRELFRPHMIEDIQRAGSGSRRDQARQLIIDLETRGSQALPLFISCLEDTGQDMLASFLRTNRQAAKLSKPTLENLTPVVLRPEIRKPEVLRPETPRPVDIGSGGFGDVGALESLRGNADLAYILSMEPCGHCLIINNVNFCRESGLRTRTGSNIDCEKLRRRFSSLHFMVEVKGDLTAKKMVLALLELAQQDHGALDCCVVVILSHGCQASHLQFPGAVYGTDGCPVSVEKIVNIFNGTSCPSLGGKPKLFFIQACGGEQKDHGFEVASTSPEDESPGSNPEPDATPFQEGLRTFDQLDAISSLPTPSDIFVSYSTFPGFVSWRDPKSGSWYVETLDDIFEQWAHSEDLQSLLLRVANAVSVKGIYKQMPGCFNFLRKKLFFKTS

Variants of: B1
Settings: with if4e_human EIF4E

| Variant | effect of a mutation on the interaction |
| --- | --- |
| G6D | with no effect |

Variants of: B2
Settings: with ppr18_human PPP1R18, Q6NYC8

| Variant | effect of a mutation on the interaction |
| --- | --- |
| V385L | disrupting interaction strength |

Variants of: B3
Settings: with nup58_human NUP58, Q9BVL2
nup58_human NUP58, Q9BVL2, sequence (Q9BVL2 whole entry): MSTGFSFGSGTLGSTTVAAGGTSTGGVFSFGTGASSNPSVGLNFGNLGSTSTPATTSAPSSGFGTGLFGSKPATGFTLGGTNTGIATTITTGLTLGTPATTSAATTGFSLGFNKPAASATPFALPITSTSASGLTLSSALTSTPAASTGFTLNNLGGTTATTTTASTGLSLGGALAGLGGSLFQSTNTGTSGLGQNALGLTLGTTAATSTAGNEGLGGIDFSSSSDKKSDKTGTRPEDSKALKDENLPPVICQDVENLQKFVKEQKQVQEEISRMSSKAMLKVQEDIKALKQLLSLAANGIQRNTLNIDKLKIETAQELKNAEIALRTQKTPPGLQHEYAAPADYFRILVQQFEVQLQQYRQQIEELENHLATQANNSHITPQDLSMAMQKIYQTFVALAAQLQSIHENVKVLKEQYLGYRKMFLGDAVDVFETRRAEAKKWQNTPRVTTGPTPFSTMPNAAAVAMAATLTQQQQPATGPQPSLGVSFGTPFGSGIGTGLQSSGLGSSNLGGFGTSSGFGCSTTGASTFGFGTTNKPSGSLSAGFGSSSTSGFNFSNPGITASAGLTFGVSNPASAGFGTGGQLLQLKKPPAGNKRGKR

| Variant | effect of a mutation on the interaction |
| --- | --- |
| A279T | with no effect |

Variants of: B3
Settings: with hsf2_human HSF2, Q03933
hsf2_human HSF2, Q03933, sequence (Q03933 whole entry): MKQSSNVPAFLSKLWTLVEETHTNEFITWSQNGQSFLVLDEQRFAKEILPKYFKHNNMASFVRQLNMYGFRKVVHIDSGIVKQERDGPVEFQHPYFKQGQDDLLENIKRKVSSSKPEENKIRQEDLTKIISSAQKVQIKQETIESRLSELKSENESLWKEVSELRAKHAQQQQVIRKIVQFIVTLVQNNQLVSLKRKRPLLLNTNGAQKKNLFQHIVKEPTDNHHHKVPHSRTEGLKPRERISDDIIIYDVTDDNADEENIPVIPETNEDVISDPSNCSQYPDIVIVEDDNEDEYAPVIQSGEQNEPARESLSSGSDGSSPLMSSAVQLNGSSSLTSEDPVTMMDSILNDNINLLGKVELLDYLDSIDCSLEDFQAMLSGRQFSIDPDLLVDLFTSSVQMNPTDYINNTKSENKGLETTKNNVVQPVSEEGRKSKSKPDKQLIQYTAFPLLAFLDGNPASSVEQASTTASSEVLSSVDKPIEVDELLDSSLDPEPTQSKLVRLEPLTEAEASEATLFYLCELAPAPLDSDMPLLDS

| Variant | effect of a mutation on the interaction |
| --- | --- |
| A279T | with no effect |

Variants of: B3
Settings: with ntf2_human NUTF2, P61970
ntf2_human NUTF2, P61970, sequence (P61970 whole entry): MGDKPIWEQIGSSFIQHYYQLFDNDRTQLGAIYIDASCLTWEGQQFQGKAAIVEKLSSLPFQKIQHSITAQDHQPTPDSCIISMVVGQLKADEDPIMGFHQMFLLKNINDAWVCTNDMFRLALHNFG

| Variant | effect of a mutation on the interaction |
| --- | --- |
| A279T | with no effect |

Variants of: B3
Settings: with abi2_human ABI2, Q9NYB9
abi2_human ABI2, Q9NYB9, sequence (Q9NYB9 whole entry): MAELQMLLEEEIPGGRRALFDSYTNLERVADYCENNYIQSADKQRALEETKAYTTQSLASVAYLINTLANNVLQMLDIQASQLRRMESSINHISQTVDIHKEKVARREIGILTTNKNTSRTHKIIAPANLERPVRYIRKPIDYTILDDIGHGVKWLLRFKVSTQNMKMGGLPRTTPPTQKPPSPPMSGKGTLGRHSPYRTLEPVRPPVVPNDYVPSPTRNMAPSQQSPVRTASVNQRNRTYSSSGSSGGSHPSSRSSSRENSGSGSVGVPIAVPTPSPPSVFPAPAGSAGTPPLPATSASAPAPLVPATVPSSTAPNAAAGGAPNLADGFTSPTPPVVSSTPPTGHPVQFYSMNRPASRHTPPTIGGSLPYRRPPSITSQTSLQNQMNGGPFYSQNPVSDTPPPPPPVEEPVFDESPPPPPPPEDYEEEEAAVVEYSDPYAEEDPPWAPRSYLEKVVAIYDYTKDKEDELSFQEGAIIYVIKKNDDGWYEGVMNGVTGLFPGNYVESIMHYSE

| Variant | effect of a mutation on the interaction |
| --- | --- |
| A279T | with no effect |

Variants of: B4
Settings: with birc2_human BIRC2, Q13490
birc2_human BIRC2, Q13490, sequence (Q13490 whole entry): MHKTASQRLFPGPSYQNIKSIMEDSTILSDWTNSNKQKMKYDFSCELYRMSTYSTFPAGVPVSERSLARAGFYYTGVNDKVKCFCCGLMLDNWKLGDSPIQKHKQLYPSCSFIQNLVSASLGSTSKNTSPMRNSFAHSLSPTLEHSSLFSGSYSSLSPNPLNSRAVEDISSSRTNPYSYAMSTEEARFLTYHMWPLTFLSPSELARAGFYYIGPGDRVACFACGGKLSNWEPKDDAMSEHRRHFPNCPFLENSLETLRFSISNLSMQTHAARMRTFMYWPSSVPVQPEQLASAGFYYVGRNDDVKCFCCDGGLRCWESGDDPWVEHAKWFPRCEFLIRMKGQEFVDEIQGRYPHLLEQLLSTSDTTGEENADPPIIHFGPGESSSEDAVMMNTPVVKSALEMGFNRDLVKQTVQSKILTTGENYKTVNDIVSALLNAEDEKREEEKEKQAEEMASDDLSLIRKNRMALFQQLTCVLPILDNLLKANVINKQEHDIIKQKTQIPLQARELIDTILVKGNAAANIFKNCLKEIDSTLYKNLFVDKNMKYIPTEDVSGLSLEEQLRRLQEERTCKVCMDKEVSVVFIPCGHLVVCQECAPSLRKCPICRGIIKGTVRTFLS

| Variant | effect of a mutation on the interaction |
| --- | --- |
| H237P | disrupting interaction strength |
| Q221R | with no effect |
| T366N | disrupting interaction strength |
| R173H | with no effect |

Variants of: B4
Settings: with xiap_human XIAP

| Variant | effect of a mutation on the interaction |
| --- | --- |
| Q221R | with no effect |
